Molecular target: T1, IgE-Fc protein having the amino acid sequence set forth in SEQ ID NO: 5 (murine, UniProt P06336 91-421, glycosylated (fully glycosylated IgE-Fc))
T1 construct: Made in HEK293T cells; also called murine IgE-Fc; single domain IgE-Fc; not shown: TEV-His tag (detected with anti-His antibodies)
T1 sequence: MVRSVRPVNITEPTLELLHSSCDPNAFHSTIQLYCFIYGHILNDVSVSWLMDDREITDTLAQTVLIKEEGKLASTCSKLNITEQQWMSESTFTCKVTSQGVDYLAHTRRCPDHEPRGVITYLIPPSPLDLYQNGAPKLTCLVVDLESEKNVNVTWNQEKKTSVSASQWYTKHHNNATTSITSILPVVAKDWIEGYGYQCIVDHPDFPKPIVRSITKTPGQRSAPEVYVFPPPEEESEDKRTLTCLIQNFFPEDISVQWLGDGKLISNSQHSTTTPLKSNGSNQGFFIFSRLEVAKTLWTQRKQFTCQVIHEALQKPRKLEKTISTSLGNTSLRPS
Assay: flow cytometry on RBL-2H3 cells, 30 min, APC anti-His detection
Experimental: Cells of the histamine-releasing rat cell line RBL-2H3 and human peripheral blood mononuclear cells (PBMCs) were treated with the IgE-Fc protein (purified) having the amino acid sequence set forth in SEQ ID NO: 5 and the IgG-Fc-IgE-Fc fusion protein (unpurified, obtained from cell culture supernatant) having the amino acid sequence set forth in SEQ ID NO: 12 for 30 min. Cells were then thoroughly washed and stained with allophycocyanin (APC) conjugated anti-His antibodies and subsequently analyzed by flow cytometry. Anti-His antibodies detected Fc proteins that were bound to the cell surface due to their specific interaction with Fc epsilon Receptor I (FcεRI) and Fc gamma Receptor IIB (FcγRIIB), respectively. IgG-Fc-IgE-Fc proteins were able to bind to both the rat basophil cell line RBL-2H3 as well as to human PBMCs (comprised about 50-70% […], 10-25% T cells, and 20-30% of cells expressing FcgRIIB), even in very low concentrations in which the IgG-Fc-IgE-Fc fusion protein was present (approximately 0.05 mg/mL) in cell culture supernatants compared to purified and highly concentrated IgE-Fc proteins (approximately 1 mg/mL).

B1: Fc epsilon Receptor I (FcεRI) on cells of the rat basophil cell line RBL-2H3 (receptor, UniProt P12371 24-245, looked up)
chain: ATQKSVVSLDPPWIRILTGDKVTLICNGNNSSQMNSTKWIHNDSISNVKSSHWVIVSATIQDSGKYICQKQGFYKSKPVYLNVMQEWLLLQSSADVVLDNGSFDIRCRSWKKWKVHKVIYYKDDIAFKYSYDSNNISIRKATFNDSGSYHCTGYLNKVECKSDKFSIAVVKDYTIEYRWLQLIFPSLAVILFAVDTGLWFSTHKQFESILKIQKTGKGKKKG
notes: whole, on cells; the receptor on cells also has beta and gamma chains; also called FceRI; Fc epsilon receptors
  binding result: binds

Reference: US20210380651A1 (SIOLTA THERAPEUTICS, published 2021)
